Source: paper PMC5553682

Biological target: GFP-Cav3.1 pore mutant (human)
Assay: FRET or BRET; live tsA-201 cells also expressing Kir2.1, exposed to high [K]o (50 mM); % change of the mKate:GFP ratio against time 0; the decrease was prevented by TTA-P2, mibefradil + Ni2+ or BAPTA-AM

% change of FRET (mKate:GFP ratio) in high [K]o: 4.55%
Substance: mKate-CaM (from UniProt P0DP23 1-149) (natural protein)
